Reference: paper doi:10.1101/2021.09.28.462122

Target: NADP+-specific glutamate dehydrogenase from Aspergillus terreus (Aspergillus terreus)
Experiment: crystal structure

**Q.** With “NADP+-specific glutamate dehydrogenase from Aspergillus terreus (enzyme)” as the substance, how does the stoichiometry N read?
**A.** 6
